Data published in US20210139548A1 (published 2021).
Values belong to the binder of their own block, whether it stands above or below them. *1 amine or outer side, *2 acyl side, *3 side chain or, on linkers, in order; H or OH if unused. Side-chain parts run from the residue outwards. The star is where a group is joined. C18 diacid = O=C(O)CCCCCCCCCCCCCCCCC(=O)*; γGlu = O=C(O)[C@H](CCC(=O)[*:2])N[*:1]; Isovaleryl = CC(C)CC(=O)*; AEEA = NCCOCCOCC(=O)O

Biological target: T1, human neuropeptide Y2 receptor (human, UniProt P49146 1-381)
T1 construct: whole, on cells; also called hNPY2 receptor; hNPY2-R
T1 sequence (looked up): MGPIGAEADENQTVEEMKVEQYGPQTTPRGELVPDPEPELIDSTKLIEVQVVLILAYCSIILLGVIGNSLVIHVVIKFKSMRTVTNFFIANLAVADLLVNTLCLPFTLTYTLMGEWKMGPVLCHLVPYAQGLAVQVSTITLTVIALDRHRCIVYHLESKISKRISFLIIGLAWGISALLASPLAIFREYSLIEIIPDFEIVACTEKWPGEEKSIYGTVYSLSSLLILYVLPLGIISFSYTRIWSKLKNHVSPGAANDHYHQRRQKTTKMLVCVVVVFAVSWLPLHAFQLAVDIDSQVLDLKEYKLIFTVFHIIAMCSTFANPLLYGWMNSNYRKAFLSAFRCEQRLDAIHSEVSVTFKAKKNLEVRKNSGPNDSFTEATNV
Test: radioligand competition (125I-PYY(1-36)), hNPY2R membranes
Summary of the method: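 Commercial human Y2 receptor membranes (0.5 μg protein/well) were incubated with peptide for 2 h at room temperature in 50 mM HEPES, 5 mM MgCl₂, 1 mM CaCl₂, pH 7.4, with 0.2% ovalbumin. Bound radioligand was separated on PEI-soaked GF/C filters and counted by scintillation, and IC₅₀ came from nonlinear sigmoidal regression.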

B1: Compound 70 (peptide)
peptide: Isovaleryl-APEK([AEEA-AEEA-γGlu-C18 diacid])PEEAASPEELQRYEVSLRHYYNWLTRQRY-NH2
SMILES: CC(C)CC(=O)N[C@@H](C)C(=O)N1CCC[C@H]1C(=O)N[C@@H](CCC(=O)O)C(=O)N[C@@H](CCCCNC(=O)COCCOCCNC(=O)COCCOCCNC(=O)CC[C@H](NC(=O)CCCCCCCCCCCCCCCCC(=O)O)C(=O)O)C(=O)N1CCC[C@H]1C(=O)N[C@@H](CCC(=O)O)C(=O)N[C@@H](CCC(=O)O)C(=O)N[C@@H](C)C(=O)N[C@@H](C)C(=O)N[C@@H](CO)C(=O)N1CCC[C@H]1C(=O)N[C@@H](CCC(=O)O)C(=O)N[C@@H](CCC(=O)O)C(=O)N[C@@H](CC(C)C)C(=O)N[C@@H](CCC(N)=O)C(=O)N[C@@H](CCCNC(=N)N)C(=O)N[C@@H](Cc1ccc(O)cc1)C(=O)N[C@@H](CCC(=O)O)C(=O)N[C@H](C(=O)N[C@@H](CO)C(=O)N[C@@H](CC(C)C)C(=O)N[C@@H](CCCNC(=N)N)C(=O)N[C@@H](Cc1c[nH]cn1)C(=O)N[C@@H](Cc1ccc(O)cc1)C(=O)N[C@@H](Cc1ccc(O)cc1)C(=O)N[C@@H](CC(N)=O)C(=O)N[C@@H](Cc1c[nH]c2ccccc12)C(=O)N[C@@H](CC(C)C)C(=O)N[C@H](C(=O)N[C@@H](CCCNC(=N)N)C(=O)N[C@@H](CCC(N)=O)C(=O)N[C@@H](CCCNC(=N)N)C(=O)N[C@@H](Cc1ccc(O)cc1)C(N)=O)[C@@H](C)O)C(C)C
Ki: 4.86 nM

B4: Compound 71 (peptide)
peptide: Isovaleryl-APEK([AEEA-AEEA-γGlu-C18 diacid])PEEEASPSELQRYYVSLRHYYNWLTRQRY-NH2
SMILES: CC(C)CC(=O)N[C@@H](C)C(=O)N1CCC[C@H]1C(=O)N[C@@H](CCC(=O)O)C(=O)N[C@@H](CCCCNC(=O)COCCOCCNC(=O)COCCOCCNC(=O)CC[C@H](NC(=O)CCCCCCCCCCCCCCCCC(=O)O)C(=O)O)C(=O)N1CCC[C@H]1C(=O)N[C@@H](CCC(=O)O)C(=O)N[C@@H](CCC(=O)O)C(=O)N[C@@H](CCC(=O)O)C(=O)N[C@@H](C)C(=O)N[C@@H](CO)C(=O)N1CCC[C@H]1C(=O)N[C@@H](CO)C(=O)N[C@@H](CCC(=O)O)C(=O)N[C@@H](CC(C)C)C(=O)N[C@@H](CCC(N)=O)C(=O)N[C@@H](CCCNC(=N)N)C(=O)N[C@@H](Cc1ccc(O)cc1)C(=O)N[C@@H](Cc1ccc(O)cc1)C(=O)N[C@H](C(=O)N[C@@H](CO)C(=O)N[C@@H](CC(C)C)C(=O)N[C@@H](CCCNC(=N)N)C(=O)N[C@@H](Cc1c[nH]cn1)C(=O)N[C@@H](Cc1ccc(O)cc1)C(=O)N[C@@H](Cc1ccc(O)cc1)C(=O)N[C@@H](CC(N)=O)C(=O)N[C@@H](Cc1c[nH]c2ccccc12)C(=O)N[C@@H](CC(C)C)C(=O)N[C@H](C(=O)N[C@@H](CCCNC(=N)N)C(=O)N[C@@H](CCC(N)=O)C(=O)N[C@@H](CCCNC(=N)N)C(=O)N[C@@H](Cc1ccc(O)cc1)C(N)=O)[C@@H](C)O)C(C)C
Ki: 5.22 nM

B5: Compound 77 (peptide)
peptide: Isovaleryl-APEK([AEEA-AEEA-γGlu-C18 diacid])PEEDASEEELQRYYVELRHYYNWLTRQRY-NH2
SMILES: CC(C)CC(=O)N[C@@H](C)C(=O)N1CCC[C@H]1C(=O)N[C@@H](CCC(=O)O)C(=O)N[C@@H](CCCCNC(=O)COCCOCCNC(=O)COCCOCCNC(=O)CC[C@H](NC(=O)CCCCCCCCCCCCCCCCC(=O)O)C(=O)O)C(=O)N1CCC[C@H]1C(=O)N[C@@H](CCC(=O)O)C(=O)N[C@@H](CCC(=O)O)C(=O)N[C@@H](CC(=O)O)C(=O)N[C@@H](C)C(=O)N[C@@H](CO)C(=O)N[C@@H](CCC(=O)O)C(=O)N[C@@H](CCC(=O)O)C(=O)N[C@@H](CCC(=O)O)C(=O)N[C@@H](CC(C)C)C(=O)N[C@@H](CCC(N)=O)C(=O)N[C@@H](CCCNC(=N)N)C(=O)N[C@@H](Cc1ccc(O)cc1)C(=O)N[C@@H](Cc1ccc(O)cc1)C(=O)N[C@H](C(=O)N[C@@H](CCC(=O)O)C(=O)N[C@@H](CC(C)C)C(=O)N[C@@H](CCCNC(=N)N)C(=O)N[C@@H](Cc1c[nH]cn1)C(=O)N[C@@H](Cc1ccc(O)cc1)C(=O)N[C@@H](Cc1ccc(O)cc1)C(=O)N[C@@H](CC(N)=O)C(=O)N[C@@H](Cc1c[nH]c2ccccc12)C(=O)N[C@@H](CC(C)C)C(=O)N[C@H](C(=O)N[C@@H](CCCNC(=N)N)C(=O)N[C@@H](CCC(N)=O)C(=O)N[C@@H](CCCNC(=N)N)C(=O)N[C@@H](Cc1ccc(O)cc1)C(N)=O)[C@@H](C)O)C(C)C
Ki: 6.17 nM

Next, values leading:

Ki: 6.96 nM
B2: Compound 80 (peptide)
peptide: Isovaleryl-APEK([AEEA-AEEA-γGlu-C18 diacid])PEEEASPEETQRYYVSLRHYYNWLTRQRY-NH2
SMILES: CC(C)CC(=O)N[C@@H](C)C(=O)N1CCC[C@H]1C(=O)N[C@@H](CCC(=O)O)C(=O)N[C@@H](CCCCNC(=O)COCCOCCNC(=O)COCCOCCNC(=O)CC[C@H](NC(=O)CCCCCCCCCCCCCCCCC(=O)O)C(=O)O)C(=O)N1CCC[C@H]1C(=O)N[C@@H](CCC(=O)O)C(=O)N[C@@H](CCC(=O)O)C(=O)N[C@@H](CCC(=O)O)C(=O)N[C@@H](C)C(=O)N[C@@H](CO)C(=O)N1CCC[C@H]1C(=O)N[C@@H](CCC(=O)O)C(=O)N[C@@H](CCC(=O)O)C(=O)N[C@H](C(=O)N[C@@H](CCC(N)=O)C(=O)N[C@@H](CCCNC(=N)N)C(=O)N[C@@H](Cc1ccc(O)cc1)C(=O)N[C@@H](Cc1ccc(O)cc1)C(=O)N[C@H](C(=O)N[C@@H](CO)C(=O)N[C@@H](CC(C)C)C(=O)N[C@@H](CCCNC(=N)N)C(=O)N[C@@H](Cc1c[nH]cn1)C(=O)N[C@@H](Cc1ccc(O)cc1)C(=O)N[C@@H](Cc1ccc(O)cc1)C(=O)N[C@@H](CC(N)=O)C(=O)N[C@@H](Cc1c[nH]c2ccccc12)C(=O)N[C@@H](CC(C)C)C(=O)N[C@H](C(=O)N[C@@H](CCCNC(=N)N)C(=O)N[C@@H](CCC(N)=O)C(=O)N[C@@H](CCCNC(=N)N)C(=O)N[C@@H](Cc1ccc(O)cc1)C(N)=O)[C@@H](C)O)C(C)C)[C@@H](C)O

Ki: 4.52 nM
B3: Compound 79 (peptide)
peptide: Isovaleryl-APEK([AEEA-AEEA-γGlu-C18 diacid])PEEEASEEELQRYYVSLRHYYNWLTRQRY-NH2
SMILES: CC(C)CC(=O)N[C@@H](C)C(=O)N1CCC[C@H]1C(=O)N[C@@H](CCC(=O)O)C(=O)N[C@@H](CCCCNC(=O)COCCOCCNC(=O)COCCOCCNC(=O)CC[C@H](NC(=O)CCCCCCCCCCCCCCCCC(=O)O)C(=O)O)C(=O)N1CCC[C@H]1C(=O)N[C@@H](CCC(=O)O)C(=O)N[C@@H](CCC(=O)O)C(=O)N[C@@H](CCC(=O)O)C(=O)N[C@@H](C)C(=O)N[C@@H](CO)C(=O)N[C@@H](CCC(=O)O)C(=O)N[C@@H](CCC(=O)O)C(=O)N[C@@H](CCC(=O)O)C(=O)N[C@@H](CC(C)C)C(=O)N[C@@H](CCC(N)=O)C(=O)N[C@@H](CCCNC(=N)N)C(=O)N[C@@H](Cc1ccc(O)cc1)C(=O)N[C@@H](Cc1ccc(O)cc1)C(=O)N[C@H](C(=O)N[C@@H](CO)C(=O)N[C@@H](CC(C)C)C(=O)N[C@@H](CCCNC(=N)N)C(=O)N[C@@H](Cc1c[nH]cn1)C(=O)N[C@@H](Cc1ccc(O)cc1)C(=O)N[C@@H](Cc1ccc(O)cc1)C(=O)N[C@@H](CC(N)=O)C(=O)N[C@@H](Cc1c[nH]c2ccccc12)C(=O)N[C@@H](CC(C)C)C(=O)N[C@H](C(=O)N[C@@H](CCCNC(=N)N)C(=O)N[C@@H](CCC(N)=O)C(=O)N[C@@H](CCCNC(=N)N)C(=O)N[C@@H](Cc1ccc(O)cc1)C(N)=O)[C@@H](C)O)C(C)C

Ki: 1.56 nM
B6: Compound 85 (peptide)
peptide: Isovaleryl-APEK([AEEA-AEEA-γGlu-C18 diacid])PEEDASPEELQRYAVSLRHYYNWLTRQRY-NH2
SMILES: CC(C)CC(=O)N[C@@H](C)C(=O)N1CCC[C@H]1C(=O)N[C@@H](CCC(=O)O)C(=O)N[C@@H](CCCCNC(=O)COCCOCCNC(=O)COCCOCCNC(=O)CC[C@H](NC(=O)CCCCCCCCCCCCCCCCC(=O)O)C(=O)O)C(=O)N1CCC[C@H]1C(=O)N[C@@H](CCC(=O)O)C(=O)N[C@@H](CCC(=O)O)C(=O)N[C@@H](CC(=O)O)C(=O)N[C@@H](C)C(=O)N[C@@H](CO)C(=O)N1CCC[C@H]1C(=O)N[C@@H](CCC(=O)O)C(=O)N[C@@H](CCC(=O)O)C(=O)N[C@@H](CC(C)C)C(=O)N[C@@H](CCC(N)=O)C(=O)N[C@@H](CCCNC(=N)N)C(=O)N[C@@H](Cc1ccc(O)cc1)C(=O)N[C@@H](C)C(=O)N[C@H](C(=O)N[C@@H](CO)C(=O)N[C@@H](CC(C)C)C(=O)N[C@@H](CCCNC(=N)N)C(=O)N[C@@H](Cc1c[nH]cn1)C(=O)N[C@@H](Cc1ccc(O)cc1)C(=O)N[C@@H](Cc1ccc(O)cc1)C(=O)N[C@@H](CC(N)=O)C(=O)N[C@@H](Cc1c[nH]c2ccccc12)C(=O)N[C@@H](CC(C)C)C(=O)N[C@H](C(=O)N[C@@H](CCCNC(=N)N)C(=O)N[C@@H](CCC(N)=O)C(=O)N[C@@H](CCCNC(=N)N)C(=O)N[C@@H](Cc1ccc(O)cc1)C(N)=O)[C@@H](C)O)C(C)C
